The text below walks through data of paper PMC2120661.

This assay addresses VLA-5 integrin (alpha5 beta1), affinity-isolated from mouse thymocyte lysate (mouse (endogenous in thymocytes)) (UniProt P09055). Put plainly: ELISA. (ELISA stands for enzyme-linked immunosorbent assay.)

For CWRGDGRDLQERGDSDK [L1-RGD peptide], the percent inhibition of the binding of L1 to VLA-5 at 500 ug/ml peptide is 80%.
